Test results from US20050043264.

What was measured:
[1] = target: T1, Drosophila Ena (overexpressed in BG2-c2 cells), Q8T4F7
T1 chain: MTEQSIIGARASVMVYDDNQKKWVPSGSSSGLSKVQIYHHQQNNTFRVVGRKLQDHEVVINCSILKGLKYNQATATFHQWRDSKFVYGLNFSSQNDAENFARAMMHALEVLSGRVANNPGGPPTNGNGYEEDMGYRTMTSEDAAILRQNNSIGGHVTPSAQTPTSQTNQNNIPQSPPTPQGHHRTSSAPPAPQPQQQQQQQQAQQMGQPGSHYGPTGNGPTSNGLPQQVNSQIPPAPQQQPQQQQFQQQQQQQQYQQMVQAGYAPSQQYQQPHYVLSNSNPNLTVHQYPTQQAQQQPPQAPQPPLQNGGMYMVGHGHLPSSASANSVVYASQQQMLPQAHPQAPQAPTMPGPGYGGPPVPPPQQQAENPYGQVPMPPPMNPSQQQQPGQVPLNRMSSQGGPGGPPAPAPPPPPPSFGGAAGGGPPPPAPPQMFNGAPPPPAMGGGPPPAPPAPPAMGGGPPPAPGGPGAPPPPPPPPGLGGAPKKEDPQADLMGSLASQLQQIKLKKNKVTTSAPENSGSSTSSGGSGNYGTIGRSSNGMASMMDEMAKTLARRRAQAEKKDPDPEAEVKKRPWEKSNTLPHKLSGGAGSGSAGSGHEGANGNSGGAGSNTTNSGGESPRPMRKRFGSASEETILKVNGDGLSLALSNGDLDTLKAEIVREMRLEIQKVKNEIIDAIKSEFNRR

[2] = target: Drosophila Cdk5 (endogenous, BG2-c2 neuronal cells), P48609
Drosophila Cdk5 (endogenous, BG2-c2 neuronal cells), P48609, sequence (P48609 whole entry): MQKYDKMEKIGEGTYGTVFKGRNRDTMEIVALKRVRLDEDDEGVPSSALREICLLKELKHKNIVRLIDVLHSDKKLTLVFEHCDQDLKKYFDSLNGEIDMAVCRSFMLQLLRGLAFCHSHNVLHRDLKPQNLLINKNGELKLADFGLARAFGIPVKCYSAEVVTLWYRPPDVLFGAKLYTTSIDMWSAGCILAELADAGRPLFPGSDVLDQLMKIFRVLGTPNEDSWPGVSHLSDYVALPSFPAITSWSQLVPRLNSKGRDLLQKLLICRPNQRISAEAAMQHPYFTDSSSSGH

B1: Drosophila Abl kinase (endogenous, BG2-c2 neuronal cells) (protein)
chain: MGAQQGKDRGAHSGGGGSGAPVSCIGLSSSPVASVSPHCISSSSGVSSAPLGGGSTLRGSRIKSSSSGVASGSGSGGGGGGSGSGLSQRSGGHKDARCNPTVGLNIFTEHNEALLQSRPLPHIPAGSTAASLLADAAELQQHQQDSGGLGLQGSSLGGGHSSTTSVFESAHRWTSKENLLAPGPEEDDPQLFVALYDFQAGGENQLSLKKGEQVRILSYNKSGEWCEAHSDSGNVGWVPSNYVTPLNSLEKHSWYHGPISRNAAEYLLSSGINGSFLVRESESSPGQRSISLRYEGRVYHYRISEDPDGKVFVTQEAKFNTLAELVHHHSVPHEGHGLITPLLYPAPKQNKPTVFPLSPEPDEWEICRTDIMMKHKLGGGQYGEVYEAVWKRYGNTVAVKTLKEDTMALKDFLEEAAIMKEMKHPNLVQLIGVCTREPPFYIITEFMSHGNLLDFLRSAGRETLDAVALLYMATQIASGMSYLESRNYIHRDLAARNCLVGDNKLVKVADFGLARLMRDDTYTAHAGAKFPIKWTAPEGLAYNKFSTKSDVWAFGVLLWEIATYGMSPYPAIDLTDVYHKLDKGYRMERPPGCPPEVYDLMRQCWQWDATDRPTFKSIHHALEHMFQESSITEAVEKQLNANATSASSSAPSTSGVATGGGATTTTAASGCASSSSATASLSLTPQMVKKGLPGGQALTPNAHHNDPHQQQASTPMSETGSTSTKLSTFSSQGKGNVQMRRTTNKQGKQAPAPPKRTSLLSSSRDSTYREEDPANARCNFIDDLSTNGLARDINSLTQRYDSETDPAADPDTDATGDSLEQSLSQVIAAPVTNKMQHSLHSGGGGGGIGPRSSQQHSSFKRPTGTPVMGNRGLETRQSKRSQLHSQAPGPGPPSTQPHHGNNGVVTSAHPITVGALDVMNVKQVVNRYGTLPKGARIGAYLDSLEDSSEAAPALPATAPSLPPANGHATPPAARLNPKASPIPPQQMIRSNSSGGVTMQNNAAASLNKLQRHRTTTEGTMMTFSSFRAGGSSSSPKRSASGVASGVQPALANLEFPPPPLDLPPPPEEFEGGPPPPPPAPESAVQAIQQHLHAQLPNNGNISNGNGTNNNDSSHNDVSNIAPSVEEASSRFGVSLRKREPSTDSCSSLGSPPEDLKEKLITEIKAAGKDTAPASHLANGSGIAVVDPVSLLVTELAESMNLPKPPPQQQQKLTNGNSTGSGFKAQLKKVEPKKMSAPMPKAEPANTIIDFKAHLRRVDKEKEPATPAPAPATVAVANNANCNTTGTLNRKEDGSKKFSQAMQKTEIKIDVTNSNVEADAGAAGEGDLGKRRSTGSINSLKKLWEQQPPAPDYATSTILQQQPSVVNGGGTPNAQLSPKYGMKSGAINTVGTLPAKLGNKQPPAAPPPPPPNCTTSNSSTTSISTSSRDCTSRQQASSTIKTSHSTQLFTDDEEQSHTEGLGSGGQGSADMTQSLYEQKPQIQQKPAVPHKPTKLTIYATPIAKLTEPASSASSTQISRESILELVGLLEGSLKHPVNAIAGSQWLQLSDKLNILHNSCVIFAENGAMPPHSKFQFRELVTRVEAQSQHLRSAGSKNVQDNERLVAEVGQSLRQISNALNR
- tyrosine-phosphorylation level of Ena [1]: Ena phosphorylation levels were elevated by Aβ42 but reduced by STI571
- Cdk5-Y15 phosphorylation (Cdk5-pY15) and Cdk5 kinase activity after STI571 or dsRNA-abl [2]: both the Cdk5-pY15 and kinase activity were diminished
